Measured values from patent publication US11673916B2, “Neuroprotective peptides and methods of their use” (University of Pittsburgh—Of the Commonwealth System of …, priority 2020, dated 2023).

Biological target: T1, Kv2.1 surface clusters (Mus musculus, UniProt Q03717)
T1 construct: immunohistochemical staining of endogenous Kv2.1 channel distribution; from tissue; host or cells: cerebral cortex of C57BL/6J mice, fixed coronal brain sections
T1 sequence (Q03717 1-857): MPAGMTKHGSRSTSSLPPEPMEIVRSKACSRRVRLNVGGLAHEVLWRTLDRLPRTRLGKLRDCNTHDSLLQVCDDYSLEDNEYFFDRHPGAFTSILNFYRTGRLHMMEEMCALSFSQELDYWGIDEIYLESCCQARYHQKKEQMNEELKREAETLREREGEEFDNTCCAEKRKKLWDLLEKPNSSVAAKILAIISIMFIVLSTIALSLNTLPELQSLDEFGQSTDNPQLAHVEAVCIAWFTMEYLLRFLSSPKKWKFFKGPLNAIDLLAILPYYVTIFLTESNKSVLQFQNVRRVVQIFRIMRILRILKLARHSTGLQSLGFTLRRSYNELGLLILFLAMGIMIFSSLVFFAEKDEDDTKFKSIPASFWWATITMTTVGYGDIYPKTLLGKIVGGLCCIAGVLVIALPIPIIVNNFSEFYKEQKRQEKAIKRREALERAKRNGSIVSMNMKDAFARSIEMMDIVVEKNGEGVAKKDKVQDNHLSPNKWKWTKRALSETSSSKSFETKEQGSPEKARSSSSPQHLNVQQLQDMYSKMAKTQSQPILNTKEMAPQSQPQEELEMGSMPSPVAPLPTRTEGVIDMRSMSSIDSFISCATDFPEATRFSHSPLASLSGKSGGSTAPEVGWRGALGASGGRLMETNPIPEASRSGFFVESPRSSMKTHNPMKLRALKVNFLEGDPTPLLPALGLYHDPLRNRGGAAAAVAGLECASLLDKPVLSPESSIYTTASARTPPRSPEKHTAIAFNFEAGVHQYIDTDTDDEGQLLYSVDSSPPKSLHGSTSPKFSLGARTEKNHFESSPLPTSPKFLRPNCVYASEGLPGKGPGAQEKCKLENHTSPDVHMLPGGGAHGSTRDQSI
Assay: Immunohistochemistry of Kv2.1 clusters in mouse cerebral cortex after intraperitoneal peptide injection
Format: in vivo
Conditions: 6 nmol/g intraperitoneal, sacrificed 2 hours post-injection, mean±SEM (FIG. 5D)
Protocol: Eight-week-old C57BL/6J male mice (28-30 g; Jackson, Bar Harbor, Me.) were administered IP injections of 6 nmol/g TAT-DP-2 (n=3) or TAT-Sc-2 peptide (n=3). Two hours post-injection, mice were anesthetized with 3% isoflurane (Henry Schein Animal Health, Dublin, Ohio) in a 3:1 […] gas mixture. Fifty mL of ice-cold 1× sterile PBS was transcardially perfused (5-10 mL/min), immediately followed by 50 mL of 4% sterile paraformaldehyde (PFA; 5-10 mL/min). Brains were removed and placed in 4% PFA at 4° C. for 24 hours, then transferred to 30% sucrose in 1× PBS at 4° C. for 48-72 hours. […]
To analyze Kv2.1 distribution in live primary cortical neurons, cells were transfected with both a tdTomato construct and a GFP-tagged Kv2.1 construct (O'Connell, et al., J Neurosci. 26: 9609-9618, 2006) and imaged on a Nikon A1+ confocal microscope (Nikon, Tokyo, Japan). […] For live images of transfected neurons, object count parameters were customized to define a Kv2.1 cluster as an area of high intensity GFP fluorescence (compared to background), measuring 0.05 μm^2 or larger (Schulien et al., J Physiol (Lond). 594: 2647-2659, 2016). Kv2.1 cluster density was calculated by normalizing the number of Kv2.1 clusters counted to the somatic area of each neuron (#Kv2.1 clusters/μm^2). […]

| Sequence | mean Kv2.1 cluster density in superficial cortex |
| --- | --- |
| YGRKKRRQRRRDFSSIST [TAT-Sc-2, TAT-linked scramble control peptide] | 565.70±50.72 #Kv2.1 clusters/image field |
| YGRKKRRQRRRSIDSFTS [TAT-DP-2, TAT-linked declustering peptide 2] | 301.10±39.60 #Kv2.1 clusters/image field |
